In publication doi:10.1101/2022.09.27.509696 (bioRxiv, 2022):
“And” between values parts separate entries of the source, which are not always exact repeats. Identical values can stand only once.

What was measured:
Assay in all cases: split reporter
[1] = molecular target: T1, sLgBiT-GPR83 (N-terminally sLgBiT-fused mature human GPR83) (human, UniProt Q9NYM4-1 17-423)
[2] = molecular target: T1, sLgBiT-GPR83 (N-terminally sLgBiT-fused …); remark: listed apart in the source
[3] = molecular target: T1, sLgBiT-GPR83 (N-terminally sLgBiT-fused …); remark: listed apart in the source

T1 sequence (Q9NYM4 17-423): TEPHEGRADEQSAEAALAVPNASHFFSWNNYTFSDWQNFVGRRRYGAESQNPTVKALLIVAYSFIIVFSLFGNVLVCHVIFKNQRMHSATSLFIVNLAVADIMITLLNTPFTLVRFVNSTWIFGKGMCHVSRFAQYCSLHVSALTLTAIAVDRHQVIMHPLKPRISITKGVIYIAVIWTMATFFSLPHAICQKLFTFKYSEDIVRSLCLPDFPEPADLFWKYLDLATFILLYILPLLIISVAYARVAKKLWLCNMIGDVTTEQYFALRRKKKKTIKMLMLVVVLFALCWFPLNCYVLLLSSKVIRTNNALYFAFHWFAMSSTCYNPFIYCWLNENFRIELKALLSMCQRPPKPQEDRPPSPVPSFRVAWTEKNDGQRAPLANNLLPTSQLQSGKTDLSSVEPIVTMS

| Binder | association half-life [1] [min] | dissociation half-life [1] [min] | Kd [2] [nM] | IC50 [3] |
| --- | --- | --- | --- | --- |
| SmBiT-FAM237A (ligand) HSQTDLLALSQADPQCWESSSVLLLEMWKPRVSNTVSGFWDFMIYLKSSENLKHGALFWDLAQLFWDIYVDCVLSRNHGL | ~3 | ~7.5 | ~70 |  |
| mature human FAM237A (family with sequence similarity 237 member A) (ligand, amidated C-terminus; one intramolecular disulfide bond) HSQTDLLALSQADPQCWESSSVLLLEMWKPRVSNTVSGFWDFMIYLKSSENLKHGALFWDLAQLFWDIYVDCVLSRNHGL |  |  |  | 13.5 nM and 12.9 nM and 16.9 nM |
